Results reported in publication PMC11342145.

What was measured:
Ubash3b (Sts1) [1] = target: Ubash3b (Sts1) (UniProt Q8BGG7); experiment: fragment AP-MS, label-free quantification
Pik3r1 [2] = target: Pik3r1 (UniProt P26450); experiment: fragment AP-MS, label-free quantification
Plcg1 [3] = target: Plcg1 (UniProt Q62077); experiment: fragment AP-MS, label-free quantification
Ubash3b (Sts1) [4] = target: Ubash3b (Sts1) (UniProt Q8BGG7); experiment: fragment affinity purification, western blot; conditions: reference: pYpYYS fragment; sites Y313,S335
Pik3r1 [5] = target: Pik3r1 (UniProt P26450); experiment: fragment affinity purification, western blot
Plcg1 [6] = target: Plcg1 (UniProt Q62077); experiment: fragment affinity purification, western blot; conditions: reference: pYpYYS fragment; sites Y313,S335
Grb7 = Grb7 (UniProt Q03160); experiment: fragment AP-MS, label-free quantification; conditions: reference: YYYS fragment
Chain of UniProt Q03160 (Q03160 whole entry, looked up, the tested form may be a part): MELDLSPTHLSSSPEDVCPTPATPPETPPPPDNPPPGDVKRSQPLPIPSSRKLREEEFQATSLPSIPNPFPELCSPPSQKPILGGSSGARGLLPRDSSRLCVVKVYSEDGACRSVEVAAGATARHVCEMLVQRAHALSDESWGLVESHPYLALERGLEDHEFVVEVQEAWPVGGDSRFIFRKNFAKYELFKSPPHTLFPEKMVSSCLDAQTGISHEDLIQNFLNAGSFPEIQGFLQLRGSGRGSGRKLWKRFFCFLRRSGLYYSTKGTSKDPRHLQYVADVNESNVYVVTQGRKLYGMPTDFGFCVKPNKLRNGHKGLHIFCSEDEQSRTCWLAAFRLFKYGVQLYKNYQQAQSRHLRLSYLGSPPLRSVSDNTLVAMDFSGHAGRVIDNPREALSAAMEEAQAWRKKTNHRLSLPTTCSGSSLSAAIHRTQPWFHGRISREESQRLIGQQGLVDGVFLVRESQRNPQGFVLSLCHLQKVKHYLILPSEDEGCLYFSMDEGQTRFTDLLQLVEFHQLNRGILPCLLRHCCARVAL

Grb2 [7] = target: Grb2 (UniProt Q60631); experiment: fragment AP-MS, label-free quantification; conditions: reference: YYYS fragment; sites Y239,Y240
Arhgef5 = Arhgef5 (UniProt E9Q7D5); experiment: fragment AP-MS, label-free quantification; conditions: reference: YYYS fragment; sites Y239,Y240
Chain of UniProt E9Q7D5 (E9Q7D5 whole entry, looked up, the tested form may be a part): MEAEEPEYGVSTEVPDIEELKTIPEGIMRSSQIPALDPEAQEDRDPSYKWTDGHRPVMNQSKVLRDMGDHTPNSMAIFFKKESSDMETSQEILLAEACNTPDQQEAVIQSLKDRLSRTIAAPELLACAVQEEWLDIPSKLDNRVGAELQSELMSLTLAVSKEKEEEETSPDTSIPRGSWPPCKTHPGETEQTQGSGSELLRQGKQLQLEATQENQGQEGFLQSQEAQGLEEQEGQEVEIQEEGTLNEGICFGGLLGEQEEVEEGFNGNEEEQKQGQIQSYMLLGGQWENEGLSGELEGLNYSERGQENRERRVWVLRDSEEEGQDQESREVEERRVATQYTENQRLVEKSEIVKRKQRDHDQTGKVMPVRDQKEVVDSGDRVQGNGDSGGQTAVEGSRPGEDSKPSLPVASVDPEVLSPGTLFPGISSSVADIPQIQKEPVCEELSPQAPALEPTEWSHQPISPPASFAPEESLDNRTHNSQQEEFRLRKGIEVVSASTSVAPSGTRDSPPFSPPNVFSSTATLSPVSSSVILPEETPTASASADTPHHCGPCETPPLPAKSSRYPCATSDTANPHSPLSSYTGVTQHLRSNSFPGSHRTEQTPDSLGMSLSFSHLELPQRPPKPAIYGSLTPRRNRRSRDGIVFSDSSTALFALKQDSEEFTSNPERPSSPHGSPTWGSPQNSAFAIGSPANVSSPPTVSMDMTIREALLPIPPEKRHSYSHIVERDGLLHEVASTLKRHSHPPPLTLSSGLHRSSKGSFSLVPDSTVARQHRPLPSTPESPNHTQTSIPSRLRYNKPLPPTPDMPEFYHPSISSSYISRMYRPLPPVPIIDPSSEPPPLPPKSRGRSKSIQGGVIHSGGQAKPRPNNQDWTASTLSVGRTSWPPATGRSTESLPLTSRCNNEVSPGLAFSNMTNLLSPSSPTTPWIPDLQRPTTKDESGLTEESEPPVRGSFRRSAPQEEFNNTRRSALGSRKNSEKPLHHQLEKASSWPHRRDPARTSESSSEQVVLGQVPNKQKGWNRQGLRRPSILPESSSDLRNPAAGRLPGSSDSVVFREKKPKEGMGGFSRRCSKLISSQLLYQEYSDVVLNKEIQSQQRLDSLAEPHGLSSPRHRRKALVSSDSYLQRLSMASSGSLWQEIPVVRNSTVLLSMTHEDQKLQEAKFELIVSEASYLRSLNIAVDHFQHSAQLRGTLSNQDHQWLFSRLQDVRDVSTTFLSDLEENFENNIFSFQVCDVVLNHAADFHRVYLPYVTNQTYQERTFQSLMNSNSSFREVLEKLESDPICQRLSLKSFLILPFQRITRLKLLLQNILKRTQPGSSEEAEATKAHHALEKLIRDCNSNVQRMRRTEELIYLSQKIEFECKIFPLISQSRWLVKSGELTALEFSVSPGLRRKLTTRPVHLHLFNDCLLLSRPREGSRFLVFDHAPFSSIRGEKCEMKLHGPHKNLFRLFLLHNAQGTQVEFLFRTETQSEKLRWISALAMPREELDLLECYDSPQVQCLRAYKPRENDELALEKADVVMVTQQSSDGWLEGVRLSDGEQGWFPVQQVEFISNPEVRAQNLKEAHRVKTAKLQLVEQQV

Grb2 [8] = target: Grb2 (UniProt Q60631); experiment: fragment affinity purification, western blot; conditions: reference: YYYS fragment; sites Y239,Y240
[9] = reference: YYYS fragment, sites Y239,Y240,Y313,S335
[10] = reference: pYpYYS fragment, sites Y313,S335
[11] = reference: YYYS fragment, sites Y239,Y240

Measured: binding against the reference

Chain of UniProt P26450 (P26450 whole entry, looked up, the tested form may be a part): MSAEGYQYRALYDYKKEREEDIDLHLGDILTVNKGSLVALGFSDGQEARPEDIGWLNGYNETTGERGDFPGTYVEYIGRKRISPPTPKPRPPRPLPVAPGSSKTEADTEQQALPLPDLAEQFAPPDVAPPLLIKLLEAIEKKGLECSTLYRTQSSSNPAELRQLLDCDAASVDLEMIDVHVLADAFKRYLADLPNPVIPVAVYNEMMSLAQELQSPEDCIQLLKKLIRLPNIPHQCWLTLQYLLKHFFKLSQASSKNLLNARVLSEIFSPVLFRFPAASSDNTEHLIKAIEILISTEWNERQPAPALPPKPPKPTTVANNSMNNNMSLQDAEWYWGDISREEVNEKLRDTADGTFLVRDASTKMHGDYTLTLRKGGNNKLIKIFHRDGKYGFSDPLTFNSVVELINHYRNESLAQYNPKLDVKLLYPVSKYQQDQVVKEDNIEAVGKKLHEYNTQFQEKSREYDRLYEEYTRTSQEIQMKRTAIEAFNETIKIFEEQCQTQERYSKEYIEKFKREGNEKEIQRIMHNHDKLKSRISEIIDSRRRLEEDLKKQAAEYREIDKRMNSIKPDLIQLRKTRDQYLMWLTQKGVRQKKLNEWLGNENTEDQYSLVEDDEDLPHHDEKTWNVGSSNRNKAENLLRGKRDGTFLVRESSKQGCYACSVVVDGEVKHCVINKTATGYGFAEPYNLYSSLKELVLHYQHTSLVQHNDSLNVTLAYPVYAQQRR
Chain of UniProt Q62077 (Q62077 whole entry, looked up, the tested form may be a part): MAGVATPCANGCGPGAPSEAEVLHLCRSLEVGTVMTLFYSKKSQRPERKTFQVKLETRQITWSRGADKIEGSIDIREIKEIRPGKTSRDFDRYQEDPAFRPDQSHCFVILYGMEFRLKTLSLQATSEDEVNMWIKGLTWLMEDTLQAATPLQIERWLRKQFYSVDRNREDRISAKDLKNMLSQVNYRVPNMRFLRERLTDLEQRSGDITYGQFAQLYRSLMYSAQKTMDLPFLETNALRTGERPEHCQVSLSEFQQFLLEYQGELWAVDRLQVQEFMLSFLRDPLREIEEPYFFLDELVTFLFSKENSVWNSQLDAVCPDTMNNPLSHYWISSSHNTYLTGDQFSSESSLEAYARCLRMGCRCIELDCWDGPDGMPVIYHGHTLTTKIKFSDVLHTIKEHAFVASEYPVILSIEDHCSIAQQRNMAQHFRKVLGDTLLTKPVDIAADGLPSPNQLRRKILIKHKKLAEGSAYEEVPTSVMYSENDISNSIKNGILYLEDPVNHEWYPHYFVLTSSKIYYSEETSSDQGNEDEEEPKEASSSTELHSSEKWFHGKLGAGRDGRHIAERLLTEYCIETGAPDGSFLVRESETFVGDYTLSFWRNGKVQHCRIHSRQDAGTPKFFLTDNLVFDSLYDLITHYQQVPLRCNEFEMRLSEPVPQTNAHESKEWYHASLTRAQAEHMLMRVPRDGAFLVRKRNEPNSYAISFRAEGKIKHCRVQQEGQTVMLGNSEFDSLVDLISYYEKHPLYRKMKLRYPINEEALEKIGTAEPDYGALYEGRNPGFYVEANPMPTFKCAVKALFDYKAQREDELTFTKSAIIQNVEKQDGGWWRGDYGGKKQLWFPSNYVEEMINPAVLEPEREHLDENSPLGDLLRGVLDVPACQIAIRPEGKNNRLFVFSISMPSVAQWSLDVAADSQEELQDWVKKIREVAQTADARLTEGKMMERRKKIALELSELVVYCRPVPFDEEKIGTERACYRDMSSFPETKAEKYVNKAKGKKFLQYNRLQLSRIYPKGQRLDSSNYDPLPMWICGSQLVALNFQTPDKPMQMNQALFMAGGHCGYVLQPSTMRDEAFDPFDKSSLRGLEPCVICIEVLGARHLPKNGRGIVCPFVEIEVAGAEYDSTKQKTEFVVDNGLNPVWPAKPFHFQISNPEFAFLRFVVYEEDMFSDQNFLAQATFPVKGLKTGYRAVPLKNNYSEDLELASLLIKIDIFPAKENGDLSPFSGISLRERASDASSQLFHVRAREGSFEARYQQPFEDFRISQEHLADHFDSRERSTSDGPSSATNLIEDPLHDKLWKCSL
Chain of UniProt Q8BGG7 (Q8BGG7 whole entry, looked up, the tested form may be a part): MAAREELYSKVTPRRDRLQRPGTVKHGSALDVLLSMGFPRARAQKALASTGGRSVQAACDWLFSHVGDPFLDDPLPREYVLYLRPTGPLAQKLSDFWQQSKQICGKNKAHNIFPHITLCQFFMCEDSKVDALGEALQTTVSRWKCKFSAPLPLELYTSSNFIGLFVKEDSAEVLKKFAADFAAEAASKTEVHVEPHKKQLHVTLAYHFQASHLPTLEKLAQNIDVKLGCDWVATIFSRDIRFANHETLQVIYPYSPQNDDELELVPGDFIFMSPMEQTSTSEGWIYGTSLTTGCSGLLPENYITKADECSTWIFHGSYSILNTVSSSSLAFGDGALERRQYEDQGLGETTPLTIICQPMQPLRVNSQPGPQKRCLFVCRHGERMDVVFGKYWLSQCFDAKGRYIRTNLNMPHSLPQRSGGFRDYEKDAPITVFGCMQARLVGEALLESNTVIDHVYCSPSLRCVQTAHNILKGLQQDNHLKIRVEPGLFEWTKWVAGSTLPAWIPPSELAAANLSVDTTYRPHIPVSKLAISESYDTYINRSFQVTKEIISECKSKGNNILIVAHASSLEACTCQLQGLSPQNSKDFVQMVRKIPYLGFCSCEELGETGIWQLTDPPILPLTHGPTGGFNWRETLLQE

Shc1 (p52Shc1) CH1 region, 107 residues (from UniProt P98083-2) pYpYpYpS fragment
stronger: Ubash3b (Sts1) [1]; [9] | Ubash3b (Sts1) [1]; [10] | Pik3r1 [2]; [10] | Plcg1 [3]; [9] | Plcg1 [3]; [10] | Ubash3b (Sts1) [4] | Pik3r1 [5]; [10] | Plcg1 [6]

Shc1 (p52Shc1) CH1 region, 107 residues (from UniProt P98083-2) pYYYS fragment
stronger: Grb7; sites Y239

Shc1 (p52Shc1) CH1 region, 107 residues (from UniProt P98083-2) pYpYYS fragment
stronger: Grb7; sites Y239,Y240 | Grb2 [7] | Arhgef5 | Pik3r1 [2]; [11] | Grb2 [8] | Pik3r1 [5]; [11]
